In US20220380430A1 (WORCESTER POLYTECHNIC INSTITUTE, published 2022):
No end group written: not given here.

Target: NPR-10B (C. elegans)
Test: cell-based or functional assay

Binder	EC50 of receptor activation (aequorin calcium luminescence, transfected CHO-K1/Galpha16 cells)
EAEEPLGTMRF-NH2 [FLP-3-3 (EAEEPLGTMRFamide)]	867 nM
NPLGTMRF-NH2 [FLP-3-4 (NPLGTMRFamide)]	427 nM
SPLGTMRF-NH2 [FLP-3-1 (SPLGTMRFamide)]	262 nM
TPLGTMRF-NH2 [FLP-3-2 (TPLGTMRFamide)]	366 nM

More lines, now with the values ahead:

EC50 of receptor activation (aequorin calcium luminescence, transfected CHO-K1/Galpha16 cells)	Binder
760 nM	NPENDTPFGTMRF-NH2 [FLP-3-9 (NPENDTPFGTMRFamide)]
1100 nM	ASEDALFGTMRF-NH2 [FLP-3-5 (ASEDALFGTMRFamide)]
439 nM	SAEPFGTMRF-NH2 [FLP-3-7 (SAEPFGTMRFamide)]

Target: FRPR-16 (C. elegans)
Test: cell-based or functional assay

Binder	EC50 of receptor activation (aequorin calcium luminescence, transfected CHO-K1/Galpha16 cells)
EAEEPLGTMRF-NH2 [FLP-3-3 (EAEEPLGTMRFamide)]	288 nM
NPLGTMRF-NH2 [FLP-3-4 (NPLGTMRFamide)]	10.7 nM
SPLGTMRF-NH2 [FLP-3-1 (SPLGTMRFamide)]	7.4 nM
TPLGTMRF-NH2 [FLP-3-2 (TPLGTMRFamide)]	31.7 nM

Next, values leading:

EC50 of receptor activation (aequorin calcium luminescence, transfected CHO-K1/Galpha16 cells)	Binder
88.3 nM	NPENDTPFGTMRF-NH2 [FLP-3-9 (NPENDTPFGTMRFamide)]
1600 nM	SADDSAPFGTMRF-NH2 [FLP-3-8 (SADDSAPFGTMRFamide)]
72.1 nM	ASEDALFGTMRF-NH2 [FLP-3-5 (ASEDALFGTMRFamide)]
39.5 nM	SAEPFGTMRF-NH2 [FLP-3-7 (SAEPFGTMRFamide)]
